Laboratory results: IntAct's records for PubMed 27951647

B1: Acid stress protein IbaG (Escherichia coli (strain K12)), P0A9W6 (parent)
chain: MENNEIQSVLMNALSLQEVHVSGDGSHFQVIAVGELFDGMSRVKKQQTVYGPLMEYIADNRIHAVSIKAYTPAEWARDRKLNGF
partner: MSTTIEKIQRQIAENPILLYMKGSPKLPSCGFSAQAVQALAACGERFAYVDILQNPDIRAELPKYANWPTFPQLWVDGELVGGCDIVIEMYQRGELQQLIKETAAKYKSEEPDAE

Variants of: B1
Settings: with glrx4_ecoli grxD
With MENNEIQSVLMNALSLQEVHVSGDGSHFQVIAVGELFDGMSRVKKQQTVYGPLMEYIADNRIAAVSIKAYTPAEWARDRKLNGF [H63A] the “effect of a mutation on the interaction” value was “with no effect”.
MENNEIQSVLMNALSLQEVHVSGDGSHFQVIAVGELFDGMSRVKKQQTVYGPLMEYIADNRICAVSIKAYTPAEWARDRKLNGF [H63C] was tested, and the “effect of a mutation on the interaction” value was “with no effect”.
MENNEIQSVLMNALSLQEVHVSGDGSAFQVIAVGELFDGMSRVKKQQTVYGPLMEYIADNRIHAVSIKAYTPAEWARDRKLNGF [H27A] was tested, and the “effect of a mutation on the interaction” value was “with no effect”.
For MENNEIQSVLMNALSLQEVHVSGDGSCFQVIAVGELFDGMSRVKKQQTVYGPLMEYIADNRIHAVSIKAYTPAEWARDRKLNGF [H27C], the “effect of a mutation on the interaction” value was “with no effect”.
MENNEIQSVLMNALSLQEVHVSGDGAHFQVIAVGELFDGMSRVKKQQTVYGPLMEYIADNRIHAVSIKAYTPAEWARDRKLNGF [S26A] was tested, and the “effect of a mutation on the interaction” value was “with no effect”.
